Reference: patent publication US20130034585A1 (BOARD OF SUPERVISORS OF LOUISIANA STATE UNIVERSITY AND …, published 2013)
Numbering of substitutions follows the chain as printed.

B1: BHV-1 UL49.5 30AAA32 CT-null (other)
chain: DPLLDAMAAAGAMDFWSAGCYARGVPLSEPPQALVVFYVALTAVMVAVALYAYGLCF
B2: BHV-1 UL49.5 CT-null (other)
chain: B1 chain with A8R, A9R, A10E
B3: BHV-1 UL49.5Δ30-32 CT-null (other)
chain: DPLLDAMGAMDFWSAGCYARGVPLSEPPQALVVFYVALTAVMVAVALYAYGLCF
B4: BHV-1 UL49.5Δ30-32 (other)
chain: DPLLDAMGAMDFWSAGCYARGVPLSEPPQALVVFYVALTAVMVAVALYAYGLCFRLMGASGPNKKESRGRG
B5: BHV-1 wt UL49.5 (glycoprotein N) (other)
chain: DPLLDAMRREGAMDFWSAGCYARGVPLSEPPQALVVFYVALTAVMVAVALYAYGLCFRLMGASGPNKKESRGRG
B6: BHV-1 UL49.5 30AAA32 (other)
chain: B5 chain with R8A, R9A, E10A

Molecular target: bovine TAP1 (bovine)
Assay: cell-based or functional assay

Point of comparison: B3, “MHC-I surface expression on infected MDBK cells (FACS)” value 88.6%. Against it:
- B1 — higher, 89.1%
- B2 — lower, 49.6%
- B4 — lower, 74.3%
- B5 — lower, 36.2%
- B6 — lower, 75%

Point of comparison: B4, “MHC-I surface expression relative to BHV-1 wt-infected MDBK cells” value 2 fold. Against it:
- B1 — higher, 2.5 fold
- B2 — lower, 1.3 fold
- B3 — higher, 2.5 fold
- B6 — the same, 2 fold

Point of comparison: B2, “inhibition of TAP-mediated peptide transport in infected MDBK cells at 8 hpi (FITC peptide, FACS)” value 63%. Against it:
- B1 — lower, 10%
- B3 — lower, 7%
- B4 — lower, 23%
- B5 — higher, 84%
- B6 — lower, 27%

Point of comparison: B3, “peptide transport at 8 hpi relative to BHV-1 wt-infected MDBK cells” value ~6 fold. Against it:
- B1 — the same, ~6 fold
- B2 — lower, 2.5 fold
- B4 — lower, 4 fold
- B6 — lower, 4 fold
